This is an account of results in patent CN103910796A.

Assay [1] addresses 狂犬病毒G蛋白 (rabies virus G protein, RVG) (rabies virus (strain not stated)).
Assay [2] concerns the target 狂犬疫苗 (rabies vaccine used as ELISA coating antigen). Put plainly: ELISA, rabies vaccine coated on plate, HRP goat anti-human IgG. A general note: An ELISA detects its analyte on a solid surface through an enzyme-linked reagent.
For assay [3], the target named is 狂犬病毒(CVS株). Put plainly: cell-based or functional assay.

B1: 全人源的单克隆的抗狂犬病毒中和抗体TRN006 (antibody, V domains shown)
VH: QVQLQESGPGLVKPSETLSLTCTVSGGSISSTTSYWGWIRQPPGKGLEWIGSIYYSGSTYYNPSLKSRVTISVDTSKNQFSLKLRSVTAADTAVYFCARHSVTAAYFNYWGQGTLVSVSS
VL: DIQMTQSPSSVSASVGDRVTITCRASEGISSWLAWYQQKPGRAPKVLIHGASSLQSGVPSRFSGSGSGADFTLSISSLQPEDFATYYCQQANSFPYTFGQGTKLEIKR
For B1, in assay [1], the fold of MFI over negative control antibody was determined as 300 fold and the fold of MFI over standard serum stood at 17 fold. In assay [2], this molecule showed an antibody concentration at which binding is still seen of 0.0024 µg/mL and a dilution fold at which binding is still seen of 50000 fold. The molecule also came in with a 保护效价 (RFFIT, Reed & Muench法) in assay [3] of 3040 IU/ml.
